Measurements taken from paper PMC4655416, “The activity of protein phosphatase 5 towards native clients is modulated by the middle- and C-terminal domains of Hsp90” (Scientific Reports, 2015).
Several values for one entry are separate records, joined by “and”; a condition that tells them apart may be missing. Equal values may be shown once.

Columns and labels:
[1] = molecular target: T1, C. elegans Hsp90 (CeHsp90), full-length (C. elegans, UniProt Q18688 1-702); experiment: cell-based or functional assay
[2] = molecular target: T2, CeHsp90-derived MEEVD-containing peptide AEEDASRMEEVD (C. elegans); experiment: cell-based or functional assay
T2 peptide: AEEDASRMEEVD

[3] = molecular target: T1, C. elegans Hsp90 (CeHsp90), full-length; experiment: AUC; sedimentation velocity with UV/VIS absorbance optics (OD280); PPH-5 titrated to a constant concentration of CeHsp90 (4 μM) or CeHsp90-MC (3.5 μM); global fit to sequential binding of a first and second PPH-5; conditions: both partners purified

- kcat of PPH-5 towards the model peptide KRpTIRR (50 μM) with 3 μM CeHsp90 [1]: 0.133 s⁻¹
- pNPP turnover by PPH-5 in presence of 60 μM peptide … [2]: ~6 fold
- Kd [3]: ~1000 nM and 1000 to 3000 nM
- stoichiometry N [3]: 2 PPH-5 per CeHsp90 dimer
B1: protein phosphatase 5 from C. elegans (PPH-5) (enzyme, UniProt Q9NES8 1-496, looked up)
chain: MAATITDDIVATVLESIEEKSYEDEKEKAGMIKDEANQFFKDQVYDVAADLYSVAIEIHPTAVLYGNRAQAYLKKELYGSALEDADNAIAIDPSYVKGFYRRATANMALGRFKKALTDYQAVVKVCPNDKDARAKFDECSKIVRRQKFEAAISTDHDKKTVAETLDINAMAIEDSYDGPRLEDKITKEFVLQLIKTFKNQQKLHKKYAFKMLLEFYNYVKSLPTMVEITVPTGKKFTICGDVHGQFYDLCNIFEINGYPSETNPYLFNGDFVDRGSFSVETIFTMIGFKLLYPNHFFMSRGNHESDVMNKMYGFEGEVKAKYTQQMCDMFTETFCWLPLCHLINEKIFVCHGGLFKEDGVTLEDIRKTDRNRQPPDEGIMCDLLWSDPQPINGRSPSKRGVGCQFGPDVTSKWCETNGIEYVVRSHEVKPEGYEMHHNGQCFTVFSAPNYCDQMNNKGAFITITGDNLTPRFTPFDAVPHPKLPPMAYANSLFGFN
notes: protein phosphatase 5 (PPH-5) of C. elegans; also called the phosphatase; source: E. coli BL21-CodonPlus(DE3)-RIL, purified (Ni-NTA, Resource Q, gel filtration); not shown: His6, N-terminal, kept
